1 molecule from paper PMC5458466, “DNA‐induced unfolding of the thyroid hormone receptor α A/B domain through allostery” can be followed below.

This data set has as its target T1, TRα (A/B + DBD) (chicken, UniProt P04625 1-154).
T1 sequence: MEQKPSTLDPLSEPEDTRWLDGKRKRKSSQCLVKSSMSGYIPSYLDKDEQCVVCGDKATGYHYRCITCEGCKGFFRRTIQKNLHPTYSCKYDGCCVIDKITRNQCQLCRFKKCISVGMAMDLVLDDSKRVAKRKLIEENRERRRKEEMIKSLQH
The experiment in a line: intrinsic Trp fluorescence quenching; room temperature, 2 uM protein, 5 mM Mg2+; average Kd, two-site fit; 50 mM HEPES pH 7.5, 125 mM NaCl, 5 mM MgCl2, 1 mM TCEP; ITC 25 C, fluorescence room temperature. The conditions noted are these: protein: recombinant; tags: 6xHis (pET15b); chain copies: 2; blunt; 19-mer complementary strands annealed.

One may read the Kd as the concentration at which binding is half-saturated.

B1: DR4 TRE (dsDNA)
DNA 1: CCAGGTCATTTCAGGTCAG
DNA 2: CTGACCTGAAATGACCTGG
On to B1, for which the Kd came out at 2690 ± 220 nM.
